4 molecules from US20230053214A1 (MACQUARIE UNIVERSITY, published 2023) can be followed below.

The target in assay [1] is T1, rat PSD95 (FLAG-PSD-95), expressed in transfected cells (rat, UniProt P31016 1-724).
T1 construct: eGFP-PSD-95 (293T lysate) was used for microscale thermophoresis and PSD-95 internally tagged with mCherry for FLIM/FRET; not shown: FLAG tag
As to the kind of experiment: co-IP with PSD-95 from transfected cells, immunoblot. A general note: Immunoblotting shows a protein as a band on a membrane.

The target of assay [2] is T1, rat PSD95 (FLAG-PSD-95), expressed in …. As to the kind of experiment: co-IP from transfected cells, immunoblot.
Description: Briefly, cells were lysed in pTNN buffer (20 mM Tris pH7.4, 150 mM NaCl, 1 mM EDTA, 1 mM Na3VO4, 1 mM NaF, 1 mM glycerophosphate, 2.5 mM Na₂H₂P₂O₇, 1 mM PMSF, protease inhibitors (Complete, Roche), 1% NP-40 substitute (Sigma-Aldrich)) on ice. Lysates were cleared by centrifugation (16,000×g/10 min/4° C.). Protein concentration was determined (DC Protein Assay, BioRad) and 200 μg of lysate incubated with antibody (1:400) for 3 h on a rotator at 4° C. Equilibrated and blocked protein G-beads (Life Technologies) were incubated with lysates for 45 min on a rotator at 4° C. Beads were then washed 3 times and incubated in sample buffer for 5 min at 95° C. before SDS-PAGE. Cortical or hippocampal tissues were homogenized in RIPA buffer (20 mM Tris pH8.0, 150 mM NaCl, 1 mM EDTA, 1 mM Na3VO4, 1 mM NaF, 1 mM glycerophosphate, 2.5 mM sodium pyrophosphate, 1 mM PMSF, protease inhibitors (Complete, Roche), 1% NP-40 substitute (Sigma-Aldrich), SDS, sodium deoxycholate) and subjected to immunoprecipitation as outlined above.
Assay [3] deals with T2, human tau (441 amino acids), wild-type (human, UniProt P10636 1-758).
T2 construct: Expressed in transfected cells for co-IP; GST-tau (E. coli) was used for microscale thermophoresis and GST pulldown, eGFP-tau for FLIM/FRET, recombinant tau for kinase assays; also called hTau40; WT tau; not shown: V5 tag from vector pcDNA3.2/V5-DEST
T2 sequence (P10636 other isoform, or with tags, fused parts or gaps): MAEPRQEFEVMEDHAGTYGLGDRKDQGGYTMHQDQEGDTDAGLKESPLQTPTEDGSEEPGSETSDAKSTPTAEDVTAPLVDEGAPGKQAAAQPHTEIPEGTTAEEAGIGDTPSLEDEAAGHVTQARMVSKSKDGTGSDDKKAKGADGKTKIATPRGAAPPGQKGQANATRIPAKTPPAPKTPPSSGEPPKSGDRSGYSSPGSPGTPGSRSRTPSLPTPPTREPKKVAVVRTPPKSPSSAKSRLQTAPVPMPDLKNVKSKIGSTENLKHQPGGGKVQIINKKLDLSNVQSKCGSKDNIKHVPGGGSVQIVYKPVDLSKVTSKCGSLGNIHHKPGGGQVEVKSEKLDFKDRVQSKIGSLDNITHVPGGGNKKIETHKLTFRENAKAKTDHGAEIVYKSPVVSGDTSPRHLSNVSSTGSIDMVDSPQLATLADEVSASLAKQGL
Description: co-IP with V5-tagged tau from transfected cells, immunoblot.

T1 sequence (P31016 whole entry): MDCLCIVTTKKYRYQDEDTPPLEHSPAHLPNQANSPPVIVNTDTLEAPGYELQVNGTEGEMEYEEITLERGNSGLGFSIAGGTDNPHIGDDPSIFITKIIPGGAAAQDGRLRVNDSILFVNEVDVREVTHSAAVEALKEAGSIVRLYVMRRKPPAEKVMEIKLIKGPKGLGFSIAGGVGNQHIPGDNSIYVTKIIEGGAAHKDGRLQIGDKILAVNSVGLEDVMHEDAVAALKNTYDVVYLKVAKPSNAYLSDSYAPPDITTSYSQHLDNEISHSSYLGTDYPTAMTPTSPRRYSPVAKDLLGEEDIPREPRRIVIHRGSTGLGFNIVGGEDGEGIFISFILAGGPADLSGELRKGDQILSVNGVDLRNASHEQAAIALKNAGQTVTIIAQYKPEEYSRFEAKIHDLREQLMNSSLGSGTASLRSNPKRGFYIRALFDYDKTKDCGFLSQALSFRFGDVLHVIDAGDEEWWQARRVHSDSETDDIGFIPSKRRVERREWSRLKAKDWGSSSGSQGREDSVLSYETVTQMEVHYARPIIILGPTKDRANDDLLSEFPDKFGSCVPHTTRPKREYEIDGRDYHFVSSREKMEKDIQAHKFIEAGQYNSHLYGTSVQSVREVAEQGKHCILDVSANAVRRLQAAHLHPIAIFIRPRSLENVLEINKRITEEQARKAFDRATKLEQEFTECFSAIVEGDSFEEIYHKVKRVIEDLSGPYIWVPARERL

B1: WT p38γ with deletion of the C-terminal PDZ-binding motif (ΔPm) (enzyme)
chain: MSSPPPARSGFYRQEVTKTAWEVRAVYRDLQPVGSGAYGAVCSAVDGRTGAKVAIKKLYRPFQSELFAKRAYRELRLLKHMRHENVIGLLDVFTPDETLDDFTDFYLVMPFMGTDLGKLMKHEKLGEDRIQFLVYQMLKGLRYIHAAGIIHRDLKPGNLAVNEDCELKILDFGLARQADSEMTGYVVTRWYRAPEVILNWMRYTQTVDIWSVGCIMAEMITGKTLFKGSDHLDQLKEIMKVTGTPPAEFVQRLQSDEAKNYMKGLPELEKKDFASILTNASPLAVNLLEKMLVLDAEQRVTAGEALAHPYFESLHDTEDEPQVQKYDDSFDDVDRTLDEWKRVTYKEVLSFKPPRQLGARVSK
notes: also called p38γ ΔPm; ΔPDZm; not shown: N-terminal HA-tag
Consider B1, for which the binding result in assay [1] is on record as “no binding”.

B2: CA p38γ with deletion of the C-terminal PDZ-binding motif (ΔPm) (enzyme)
chain: MSSPPPARSGFYRQEVTKTAWEVRAVYRDLQPVGSGAYGAVCSAVDGRTGAKVAIKKLYRPFQSELFAKRAYRELRLLKHMRHENVIGLLDVFTPDETLDDFTDFYLVMPFMGTDLGKLMKHEKLGEDRIQFLVYQMLKGLRYIHAAGIIHRDLKPGNLAVNEDCELKILDFGLARQAASEMTGYVVTRWYRAPEVILNWMRYTQTVDIWSVGCIMAEMITGKTLFKGSDHLDQLKEIMKVTGTPPAEFVQRLQSDEAKNYMKGLPELEKKDFASILTNASPLAVNLLEKMLVLDAEQRVTAGEALAHPYFESLHDTEDEPQVQKYDDSFDDVDRTLDEWKRVTYKEVLSFKPPRQLGARVSK
notes: also called p38γ^CA ΔPm; ΔPDZm; not shown: N-terminal HA-tag
Regarding B2, the binding result in assay [1] is “no binding”.

B3: human wild-type p38γ (HA-tagged) (enzyme)
chain: MSSPPPARSGFYRQEVTKTAWEVRAVYRDLQPVGSGAYGAVCSAVDGRTGAKVAIKKLYRPFQSELFAKRAYRELRLLKHMRHENVIGLLDVFTPDETLDDFTDFYLVMPFMGTDLGKLMKHEKLGEDRIQFLVYQMLKGLRYIHAAGIIHRDLKPGNLAVNEDCELKILDFGLARQADSEMTGYVVTRWYRAPEVILNWMRYTQTVDIWSVGCIMAEMITGKTLFKGSDHLDQLKEIMKVTGTPPAEFVQRLQSDEAKNYMKGLPELEKKDFASILTNASPLAVNLLEKMLVLDAEQRVTAGEALAHPYFESLHDTEDEPQVQKYDDSFDDVDRTLDEWKRVTYKEVLSFKPPRQLGARVSKETPL
notes: Recombinant p38γ from bacteria was used in the in vitro kinase assays; also called p38γ WT; wild-type p38γ (WT); not shown: N-terminal HA-tag
For the molecule B3, the binding result in assay [2] and in assay [3] was “binds” in each case.

B4: constitutive active p38γ (D179A), HA-tagged (enzyme)
chain: MSSPPPARSGFYRQEVTKTAWEVRAVYRDLQPVGSGAYGAVCSAVDGRTGAKVAIKKLYRPFQSELFAKRAYRELRLLKHMRHENVIGLLDVFTPDETLDDFTDFYLVMPFMGTDLGKLMKHEKLGEDRIQFLVYQMLKGLRYIHAAGIIHRDLKPGNLAVNEDCELKILDFGLARQAASEMTGYVVTRWYRAPEVILNWMRYTQTVDIWSVGCIMAEMITGKTLFKGSDHLDQLKEIMKVTGTPPAEFVQRLQSDEAKNYMKGLPELEKKDFASILTNASPLAVNLLEKMLVLDAEQRVTAGEALAHPYFESLHDTEDEPQVQKYDDSFDDVDRTLDEWKRVTYKEVLSFKPPRQLGARVSKETPL
notes: also called p38γ^CA; p38γ CA; not shown: N-terminal HA-tag
For B4, the binding result in assay [2] and in assay [3] was “binds” each time.
